Values quoted from earlier work in publication PMC9884707.

Molecular target: SHARPIN PH domain (20-121) (Homo sapiens) (UniProt Q9H0F6)

- Kd: 124 µM
Substance: SHARPIN PH domain (20-121) (from UniProt Q9H0F6)
